According to patent US20140186897A1, “TRANSFORMANT OF YEAST OF GENUS SCHIZOSACCHAROMYCES, METHOD FOR PRODUCING SAME, METHOD FOR PRODUCING ß-GLUCOSIDASE, AND CELLULOSE DEGRADATION METHOD” (ASAHI GLASS COMPANY, LIMITED, priority 2011, published 2014):
Positions count from the first letter of the chain named. Numbers in names are those of the source. Each block holds one molecule with its values, some of them ahead of it.

How the values were obtained:
[1] = glucosidase activity measurement of culture supernatant (pNPG); type: biochemical
Method: A mutant strain which formed a large colony was selected from P3AaBGL1 mutant strain library. Then, thus selected strain and P3ASP3326 strain as the original strain were cultivated in 150 μl/well (96-well plate) of YES medium at 30° C. for two days. 50 μl of each culture supernatant was diluted by 150 μl of 50 mM acetate buffer (pH 5.0) to prepare a diluted enzyme sample. Then, the enzymatic activity of the sample was measured in accordance with the following method.
To 10 μl of 20 mM p-nitrophenyl-β-D-glucoside (hereinafter abbreviated as pNPG), 10 μl of 1M sodium acetate buffer solution (pH 5.0) and 130 μl of water were added, and then 50 μl of the diluted enzyme sample was introduced for reacting them at 37° C. for 10 minutes. 100 μl of the reaction mixture was mixed with 100 μl of 2% sodium carbonate solution to terminate reaction, and then the amount of free p-nitrophenol was colorimetrically measured at a wavelength of 450 nm.
The amount of enzyme that produces 1 μmol of p-nitrophenol per minute was defined as 1 U.
The P3AaBGL1 mutant strain obtained as above was cultivated in YES medium at 30° C. for one day. 100 μl of the culture broth was inoculated on 5 ml of YPD medium (1% of yeast extract, 2% of peptone, and 2% of glucose), followed by cultivation at 30° C. for two days. Thereafter, the culture broth was centrifuged to obtain a culture supernatant.
(§1) By using the above-obtained culture supernatant of the P3AaBGL1 mutant strain, a diluted enzyme sample was prepared, and then the enzymatic activity of the sample was measured in accordance with the above-described activity measurement method. Further, the glucose inhibition at a final glucose concentration of from 0.1 to 200 mM and the thermostability at a warming temperature of from 50 to 75° C. were measured for evaluation.

[2] = glucose inhibition measurement (residual glucosidase activity in the presence of glucose); type: biochemical; details: for Residual glucosidase activity, Glc 0 mM / Residual glucosidase activity, Glc 1 mM / Residual glucosidase activity, Glc 5 mM / Residual glucosidase activity, Glc 10 mM / Residual glucosidase activity, Glc 20 mM / Residual glucosidase activity, Glc 50 mM / Residual glucosidase activity, Glc 100 mM / Residual glucosidase activity, Glc 200 mM: Example 9; for Residual glucosidase activity, Glc 0 mM: glucose 0 mM (reference set to 100); for Residual glucosidase activity, Glc 1 mM: glucose 1 mM; for Residual glucosidase activity, Glc 5 mM: glucose 5 mM; for Residual glucosidase activity, Glc 10 mM: glucose 10 mM; for Residual glucosidase activity, Glc 20 mM: glucose 20 mM; for Residual glucosidase activity, Glc 50 mM: glucose 50 mM; for Residual glucosidase activity, Glc 100 mM: glucose 100 mM; for Residual glucosidase activity, Glc 200 mM: glucose 200 mM; for resistance to glucose inhibition (in words): compared with P3AaBGL1 / β-glucosidase without the mutation
Method: To 10 μl of 20 mM pNPG, 10 μl of 1M sodium acetate buffer solution (pH 5.0) and from 4 to 10 μl of 1M glucose (final concentration of from 20 to 50 mM) were added, followed by addition of water up to the total volume of 150 μl. Thereafter, 50 μl of the diluted enzyme sample was introduced for reacting them at 37° C. for 10 minutes. As a control, a glucose-free reaction mixture was used, and then the reaction was carried out at 37° C. for 10 minutes, in the same manner. 100 μl of each reaction mixture was mixed with 100 μl of 2% sodium carbonate solution to terminate reaction, and then the amount of liberated p-nitrophenol was colorimetrically measured at a wavelength of 450 nm.
The ratio (%) of the colorimetric value of each reaction mixture to the colorimetric value of the control sample (glucose-free sample) was defined as the residual activity after glucose inhibition.
as §1
(§2) 11F10 strain, 22A12 strain, 28C02 strain, 29F09 strain and mutBGL1 strain selected from the mutant strains, and ASP3326 strain as the original strain were cultivated in a Sakaguchi flask containing 100 ml of YPD medium at 30° C. for two days. To each of the culture supernatants obtained by cultivating them, […] was added until 80% saturation was reached, thereby to carry out ammonium sulfate precipitation at 4° C. for 2 hours. Thereafter, centrifugation was carried out to collect pellets, and the pellets were dissolved in 10 ml of 10 mM citrate phosphate buffer solution (pH 7.0). Then, desalting and concentration were carried out by using an ultrafiltration membrane having MWCO of 100,000, thereby to recover 1 ml of a crude liquid. Thus recovered crude liquid was purified by using Hitrap QXL column to collect a fraction of a peak of pNPG activity, thereby to obtain a purified sample. Elution was carried out by using a 10 mM citrate phosphate buffer solution (pH 7.0) and a NaCl concentration gradient (0 to 1M).
(§3) In the same manner as in Example 1, the residual glucosidase activities after glucose inhibition at a glucose concentration of from 0.1 to 200 mM were measured. Further, the residual glucosidase activities after heat treatment at a temperature of from 50 to 75° C. for 10 minutes were measured.

[3] = thermostability measurement (residual glucosidase activity after heat treatment); type: physicochemical; details: for Residual glucosidase activity, Temp 50° C. / Residual glucosidase activity, Temp 55° C. / Residual glucosidase activity, Temp 60° C. / Residual glucosidase activity, Temp 65° C. / Residual glucosidase activity, Temp 70° C. / Residual glucosidase activity, Temp 73° C. / Residual glucosidase activity, Temp 75° C. / Residual glucosidase activity, Untreated: Example 9; for Residual glucosidase activity, Temp 50° C.: 10 minutes at 50° C.; for Residual glucosidase activity, Temp 55° C.: 10 minutes at 55° C.; for Residual glucosidase activity, Temp 60° C.: 10 minutes at 60° C.; for Residual glucosidase activity, Temp 65° C.: 10 minutes at 65° C.; for Residual glucosidase activity, Temp 70° C.: 10 minutes at 70° C.; for Residual glucosidase activity, Temp 73° C.: 10 minutes at 73° C.; for Residual glucosidase activity, Temp 75° C.: 10 minutes at 75° C.; for Residual glucosidase activity, Untreated: no heat treatment (reference set to 100); for thermostability (in words): compared with P3AaBGL1 / β-glucosidase without the mutation
Method: To 10 μl of 20 mM pNPG, 10 μl of 1M sodium acetate buffer solution (pH 5.0) and 130 μl of water were added, and then 50 μl of a diluted enzyme sample preliminarily heat-treated at […] for 10 minutes was introduced for reacting them at 37° C. for 10 minutes. As a control, a diluted enzyme sample which was not subjected to the heat treatment was used, and then the reaction was carried out at 37° C. for 10 minutes, in the same manner. 100 μl of each reaction mixture was mixed with 100 μl of 2% sodium carbonate solution to terminate reaction, and then the amount of liberated p-nitrophenol was colorimetrically measured at a wavelength of 450 nm.
The ratio (%) of the colorimetric value of each reaction mixture to the colorimetric value of the control sample (untreated sample) was defined as the residual activity after heat treatment.
as §1, §2, §3

[4] = culture supernatant, relative to 0 mM glucose, Tables 7-10

Molecule: 6H05
- Activity ([1]; pNPG, pH 5.0, 37° C., 10 minutes, Tables 7-10): 525 mU/ml
- Residual activity, Glc 20 mM [2, 4]: 41%
- Residual activity, Glc 50 mM [2, 4]: 23%
- Residual activity, Temp 65° C. ([3]; culture supernatant warmed 10 minutes at 65° C., relative to no heat treatment, Tables 7-10): 73%
- Residual activity, Temp 67° C. ([3]; culture supernatant warmed 10 minutes at 67° C., relative to no heat treatment, Tables 7-10): 59%

B1: I260F: modified-type P3AaBGL1 with I260F only (mutation 1) (protein)
chain: MKITAVIALLFSLAAASPIPVADPGVVSVSLKKRADELAFSPPFYPSPWANGQGEWAEAYQRAVAIVSQMTLDEKVNLTTGTGWELEKCVGQTGGVPRLNIGGMCLQDSPLGIRDSDYNSAFPAGVNVAATWDKNLAYLRGQAMGQEFSDKGIDVQLGPAAGPLGRSPDGGRNWEGFSPDPALTGVLFAETIKGIQDAGVVATAKHYILNEQEHFRQVAEAAGYGFNISDTISSNVDDKTIHEMYLWPFADAVRAGVGAFMCSYNQINNSYGCQNSYTLNKLLKAELGFQGFVMSDWGAHHSGVGSALAGLDMSMPGDITFDSATSFWGTNLTIAVLNGTVPQWRVDDMAVRIMAAYYKVGRDRLYQPPNFSSWTRDEYGFKYFYPQEGPYEKVNHFVNVQRNHSEVIRKLGADSTVLLKNNNALPLTGKERKVAILGEDAGSNSYGANGCSDRGCDNGTLAMAWGSGTAEFPYLVTPEQAIQAEVLKHKGSVYAITDNWALSQVETLAKQASVSLVFVNSDAGEGYISVDGNEGDRNNLTLWKNGDNLIKAAANNCNNTIVVIHSVGPVLVDEWYDHPNVTAILWAGLPGQESGNSLADVLYGRVNPGAKSPFTWGKTREAYGDYLVRELNNGNGAPQDDFSEGVFIDYRGFDKRNETPIYEFGHGLSYTTFNYSGLHIQVLNASSNAQVATETGAAPTFGQVGNASDYVYPEGLTRISKFIYPWLNSTDLKASSGDPYYGVDTAEHVPEGATDGSPQPVLPAGGGSGGNPRLYDELIRVSVTVKNTGRVAGDAVPQLYVSLGGPNEPKVVLRKFDRLTLKPSEETVWTTTLTRRDLSNWDVAAQDWVITSYPKKVHVGSSSRQLPLHAALPKVQ
- Activity ([1]; Example 9, Table 11): 457 mU/ml
- Residual glucosidase activity, Glc 0 mM [2]: 100%
- Residual glucosidase activity, Glc 1 mM [2]: 95.9%
- Residual glucosidase activity, Glc 5 mM [2]: 73.6%
- Residual glucosidase activity, Glc 10 mM [2]: 55.6%
- Residual glucosidase activity, Glc 20 mM [2]: 39.0%
- Residual glucosidase activity, Glc 50 mM [2]: 20.2%
- Residual glucosidase activity, Glc 100 mM [2]: 11.4%
- Residual glucosidase activity, Glc 200 mM [2]: 6.3%
- resistance to glucose inhibition (in words) [2]: increase
- Residual glucosidase activity, Temp 50° C. [3]: 97.0%
- Residual glucosidase activity, Temp 55° C. [3]: 91.2%
- Residual glucosidase activity, Temp 60° C. [3]: 87.7%
- Residual glucosidase activity, Temp 65° C. [3]: 65.2%
- Residual glucosidase activity, Temp 70° C. [3]: 22.6%
- Residual glucosidase activity, Temp 73° C. [3]: 1.8%
- Residual glucosidase activity, Temp 75° C. [3]: 1.8%
- Residual glucosidase activity, Untreated [3]: 100%
- thermostability (in words) [3]: increase

B4: Q156L: modified-type P3AaBGL1 with Q156L only (protein)
chain: B1 chain with Q156L, F260I
- Activity ([1]; Example 9, Table 11): 507 mU/ml
- Residual glucosidase activity, Glc 0 mM [2]: 100%
- Residual glucosidase activity, Glc 1 mM [2]: 92.8%
- Residual glucosidase activity, Glc 5 mM [2]: 64.9%
- Residual glucosidase activity, Glc 10 mM [2]: 46.8%
- Residual glucosidase activity, Glc 20 mM [2]: 31.5%
- Residual glucosidase activity, Glc 50 mM [2]: 15.5%
- Residual glucosidase activity, Glc 100 mM [2]: 8.8%
- Residual glucosidase activity, Glc 200 mM [2]: 5.4%
- resistance to glucose inhibition (in words) [2]: decrease
- Residual glucosidase activity, Temp 50° C. [3]: 93.9%
- Residual glucosidase activity, Temp 55° C. [3]: 89.7%
- Residual glucosidase activity, Temp 60° C. [3]: 83.9%
- Residual glucosidase activity, Temp 65° C. [3]: 46.0%
- Residual glucosidase activity, Temp 70° C. [3]: 6.3%
- Residual glucosidase activity, Temp 73° C. [3]: 0.9%
- Residual glucosidase activity, Temp 75° C. [3]: 1.4%
- Residual glucosidase activity, Untreated [3]: 100%
- thermostability (in words) [3]: decrease

Now from value to molecule, other results behind:

- Activity ([1]; Example 9, Table 11): 526 mU/ml
- resistance to glucose inhibition (in words) [2]: without decreasing
B2: R629L: modified-type P3AaBGL1 with R629L only (mutation 6) (protein)
chain: B1 chain with F260I, R629L
- Residual glucosidase activity, Glc 0 mM [2]: 100%
- Residual glucosidase activity, Glc 1 mM [2]: 91.5%
- Residual glucosidase activity, Glc 5 mM [2]: 67.4%
- Residual glucosidase activity, Glc 10 mM [2]: 53.9%
- Residual glucosidase activity, Glc 20 mM [2]: 37.6%
- Residual glucosidase activity, Glc 50 mM [2]: 19.6%
- Residual glucosidase activity, Glc 100 mM [2]: 11.1%
- Residual glucosidase activity, Glc 200 mM [2]: 6.9%
- Residual glucosidase activity, Temp 50° C. [3]: 98.7%
- Residual glucosidase activity, Temp 55° C. [3]: 93.7%
- Residual glucosidase activity, Temp 60° C. [3]: 90.7%
- Residual glucosidase activity, Temp 65° C. [3]: 71.8%
- Residual glucosidase activity, Temp 70° C. [3]: 26.5%
- Residual glucosidase activity, Temp 73° C. [3]: 3.5%
- Residual glucosidase activity, Temp 75° C. [3]: 1.5%
- Residual glucosidase activity, Untreated [3]: 100%
- thermostability (in words) [3]: can be improved

- Activity ([1]; Example 9, Table 11): 586 mU/ml
- resistance to glucose inhibition (in words) [2]: without decreasing
B3: N458S: modified-type P3AaBGL1 with N458S only (mutation 3) (protein)
chain: B1 chain with F260I, N458S
- Residual glucosidase activity, Glc 0 mM [2]: 100%
- Residual glucosidase activity, Glc 1 mM [2]: 92.7%
- Residual glucosidase activity, Glc 5 mM [2]: 68.1%
- Residual glucosidase activity, Glc 10 mM [2]: 52.1%
- Residual glucosidase activity, Glc 20 mM [2]: 35.9%
- Residual glucosidase activity, Glc 50 mM [2]: 17.7%
- Residual glucosidase activity, Glc 100 mM [2]: 10.4%
- Residual glucosidase activity, Glc 200 mM [2]: 6.0%
- Residual glucosidase activity, Temp 50° C. [3]: 98.6%
- Residual glucosidase activity, Temp 55° C. [3]: 95.7%
- Residual glucosidase activity, Temp 60° C. [3]: 91.6%
- Residual glucosidase activity, Temp 65° C. [3]: 64.2%
- Residual glucosidase activity, Temp 70° C. [3]: 19.4%
- Residual glucosidase activity, Temp 73° C. [3]: 0.8%
- Residual glucosidase activity, Temp 75° C. [3]: 1.6%
- Residual glucosidase activity, Untreated [3]: 100%
- thermostability (in words) [3]: can be improved
